Key:
[1] = tested on: anti-glycocalicin antibodies; details: competitive ELISA, literature; cited from earlier work
[2] = biological target: T1, binding of von Willebrand factor and chimeric protein (glycoprotein Ib) (Homo sapiens, UniProt P04275+P07359); experiment: Detection of glycocalicin in plasma by ELISA using anti-mouse IgG-Fc antibodies; parameters: made in house; host or cells: CHOdhfr- cells transfected with pSDGPIbIgG1Fc; unpurified serum-free culture supernatant; details: diluted human plasma, based on reported blood concentration about 2 μg/ml
Protocol: Immobilization of a mixed solution of von Willebrand factor and botrocetin on a 96-well multititer plate was attained as follows. First, a physiological saline solution of von Willebrand factor (250 μg/ml) and a physiological saline solution of botrocetin (500 μg/ml), which were prepared in a conventional manner, were appropriately diluted, and mixed at the concentration ratios shown in FIG. 2. Then, 50 μl of each mixture was added to each well of a 96-well multititer plate (Maxisorp, produced by Nunc). […]
Each well was washed 5 times with TBS (150 μl) containing 0.05% Tween-20, and added with 100 μl of 100 mM NaHCO3 solution containing 10 mM MgCl2, in which p-nitrophenylphosphate was dissolved at 1 mg/ml, to carry out the color development reaction for about 1 hour. After the color development, absorbance at 405 nm was measured.
The detection was carried out in the same manner as that of Example 4 <1> except that von Willebrand factor was immobilized by using a mixed solution (TBS) containing 2.5 μg/ml of von Willebrand factor and 2.5 μg/ml of botrocetin, and a binding inhibition substance of which inhibitory activity was desired to be measured was added to the reaction of the immobilized von Willebrand factor and the culture supernatant of the chimeric protein producing cells. […]

[3] = biological target: T1, binding of von Willebrand factor and chimeric protein (glycoprotein Ib); experiment: Detection of glycocalicin in plasma using chimeric protein labeled with europium (Eu); parameters: made in house; host or cells: CHOK1 cells transfected with pMikGPIbFc; purified on a Protein A column and labelled with europium; details: diluted human plasma, based on reported blood concentration about 2 μg/ml
Protocol: The detection was carried out in the same manner as that of Example 4 <2> except that svon Willebrand factor was immobilized by using a mixed solution (TBS) containing 2.5 μg/ml of von Willebrand factor and 2.5 μg/ml of botrocetin, and a binding inhibition substance of which inhibitory activity was desired to be measured was added to the reaction of the immobilized von Willebrand factor and the chimeric protein labeled with europium (Eu).
Each human plasma independently prepared in the same manner as the above <1> were successively diluted 2-fold with TBS (8 times of dilution in total), and 25 μl each of the diluted plasma was added to each well of a von Willebrand factor immobilized plate prepared in the same manner as in Example 5 <1> (microtitration plate DELFIA, 1244-550, produced by Pharmacia Biotech, was used as the base plate). Further, 25 μl a solution of the chimeric protein labeled with europium (Eu) in assay buffer prepared in the same manner as in Example 4 <1> (100 ng/ml, Assay Buffer; 1244-106, produced by Pharmacia Biotech) was added to each well of the plate for reaction. The subsequent washing and measurement were performed in the same manner as in Example 5 <2>, and the average values of the results are shown in FIG. 7.

Q: Which “IC50 value of the glycocalicin concentration showing competitive inhibition” value [1] does the source give for “glycocalicin: enzymatically cleaved extracellular portion of platelet membrane glycoprotein Ibα chain, about 135 kDa” here?
A: about 4 μg/ml

Q: And the “Glycocalicin concentration showing 50% binding inhibition” value [2]?
A: about 400 ng/ml

Q: What about the “Glycocalicin concentration showing 50% binding inhibition” value [3] of the same substance?
A: about 60 ng/ml
